Consider two molecules from PMC9321131.

Data set [1] addresses T1, rPvSPL2 (GST-PvSPL2) (Panicum virgatum, UniProt A0A8T0WHV5 1-470).
T1 sequence: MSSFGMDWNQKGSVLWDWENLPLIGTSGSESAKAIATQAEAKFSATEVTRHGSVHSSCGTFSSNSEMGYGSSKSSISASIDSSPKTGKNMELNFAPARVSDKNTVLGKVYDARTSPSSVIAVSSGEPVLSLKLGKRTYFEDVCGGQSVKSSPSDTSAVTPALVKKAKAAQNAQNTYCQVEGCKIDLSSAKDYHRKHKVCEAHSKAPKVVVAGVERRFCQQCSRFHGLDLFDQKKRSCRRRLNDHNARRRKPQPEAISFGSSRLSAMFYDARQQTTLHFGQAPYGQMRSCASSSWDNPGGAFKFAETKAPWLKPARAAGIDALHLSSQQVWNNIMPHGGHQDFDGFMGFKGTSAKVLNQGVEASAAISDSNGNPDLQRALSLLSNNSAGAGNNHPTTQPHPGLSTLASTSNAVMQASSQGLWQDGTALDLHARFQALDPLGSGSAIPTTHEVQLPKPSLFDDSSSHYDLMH
As to the kind of experiment: EMSA. For orientation: Mobility shift assays separate free from complexed probe on a gel.

The target in data set [2] is T1, rPvSPL2 (GST-PvSPL2). The data set is described as follows: EMSA. This is another data set of the same source.

Where two headings read alike, the source gives them in different places.

B1: PvLBO promoter probe 2 (site 2) (dsDNA)
DNA 1: TACAATATTTGTACTGTCATAATA
DNA 2: TATTATGACAGTACAAATATTGTA
Consider B1, for which the binding result in the data set with rPvSPL2 (GST-PvSPL2) [1] is “binds”.

B2: PvLBO promoter probe 1 (site 1) (dsDNA)
DNA 1: CCCCCCAAACGTACTATTTACTAT
DNA 2: ATAGTAAATAGTACGTTTGGGGGG
B2: the binding result with rPvSPL2 (GST-PvSPL2) [2] is “binds”.
